Consider three molecules from patent publication US20220025023A1 (AC IMMUNE, published 2022).

For one test, the target named is T1, TP-25 peptide (human, also: biotinylated, site not given here).
T1 construct: 15-mer of human TDP-43 from the library spanning aa 199-285; captured on streptavidin plates
T1 peptide: VMDVFIPKPFRAFAF
Put plainly: indirect ELISA, biotinylated 15-mer peptide on streptavidin plate, hybridoma supernatant. As for the experimental part: (§1) Serum-free supernatants were harvested from stable hybridomas. The supernatants containing antibodies of interest were then screened by an indirect ELISA assay to determine epitopes. Epitopes were mapped using a library of TDP-43 15-mer peptides. Briefly, 96-well streptavidin-coated 96-well ELISA plates were incubated with 5 μg/mL of biotinylated 15-mer peptides spanning the amino acids (aa) 199-285 of human TDP-43 with 9 aa offset and 6 aa overlap. Plates were washed thoroughly with 0.05% Tween-20/PBS and then blocked with 1% bovine serum albumin (BSA) in 0.05% Tween-20/PBS for 1 hour at 37° C. The antibody contained in the hybridoma supernatant was then added at the indicated dilutions, and incubated for 2 hours at 37° C. after which the plates were washed as described previously. An AP-conjugated anti-mouse IgG secondary antibody (Jackson ImmunoResearch Laboratories, United Kingdom) was added at 1/1000 dilution in 0.05% Tween-20/PBS for 1 hour at 37° C. After the final wash, plates were incubated with pNPP (Sigma-Aldrich, Switzerland) an AP substrate solution, and read at 405 nm using an ELISA plate reader (Tecan).

For the next test, the target named is T2, TP-24 peptide (human, also: biotinylated, site not given here).
T2 construct: 15-mer of human TDP-43 from the library spanning aa 199-285; captured on streptavidin plates
T2 peptide: REFFSQYGDVMDVFI
The test is described as above. The protocol: as §1

Test [1] has as its target T3, TDP-3 peptide (human).
T3 construct: Irrelevant control peptide; conjugated to Luminex beads in the assay; also called TDP-43 aa 310-370; irrelevant target
T3 peptide: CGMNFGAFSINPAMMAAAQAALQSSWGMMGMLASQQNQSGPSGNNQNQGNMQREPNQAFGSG
As to the kind of experiment: Luminex bead assay, serial dilution of the antibody, MFI.

A further test has as its target T4, TDP-1 peptide (human).
T4 construct: Immunogen peptide; conjugated to Luminex beads in the assay; also called TDP-43 aa 212-272
T4 peptide: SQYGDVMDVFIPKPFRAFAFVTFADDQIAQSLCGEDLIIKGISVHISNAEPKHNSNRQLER
As to the kind of experiment: Luminex bead assay, antibody serial dilution, TDP-1 peptide beads.

In another test the target is T5, TP-27 (also: biotinylated, site not given here).
T5 construct: also called TP-27 peptide
T5 peptide: ADDQIAQSLCGEDLI
Put plainly: indirect ELISA, biotinylated 15-mer on streptavidin plate, hybridoma supernatant. The protocol: as §1
On the technique in general: An ELISA detects its analyte on a solid surface through an enzyme-linked reagent.

The next test has as its target T6, TP-30 (also: biotinylated, site not given here).
T6 construct: also called TP-30 peptide
T6 peptide: PKHNSNRQLERSGRF
The description is as above. As for the experimental part: as §1

The target of the next test is T7, TP-29 (also: biotinylated, site not given here).
T7 construct: also called TP-29 peptide
T7 peptide: ISVHISNAEPKHNSN
The test is described as above. The protocol: as §1

The target of a further test is T8, TP-31 (also: biotinylated, site not given here).
T8 construct: also called TP-31 peptide
T8 peptide: ERSGRFGGNPGGFGN
Described as above. As for the experimental part: as §1

Another test deals with T9, TP-26 (also: biotinylated, site not given here).
T9 construct: also called TP-26 peptide
T9 peptide: FRAFAFVTFADDQIA
The description is as above. As for the experimental part:
as §1

The next test concerns the target T10, BSA (bovine, UniProt P02769).
T10 construct: not specified; also called bovine serum albumin
As to the kind of experiment: indirect ELISA, control coat in the 15-mer series, hybridoma supernatant.

For the next test, the target named is T11, TDP-223 peptide (human).
T11 construct: 8-mer of human TDP-43; same ELISA method as for the biotinylated 15-mers
T11 peptide: PKPFRAFA
As to the kind of experiment: indirect ELISA, 8-mer peptide library. The protocol:
as §1
(§2) Furthermore, antibodies were tested using an indirect ELISA on a peptide library of 8-mer peptides with 7 aa overlap covering the sequence of human TDP-43 from aa 210 to aa 231, using the same ELISA method as describe previously in this section.

The next test concerns the target T12, TDP-218 peptide (human).
T12 construct: 8-mer of human TDP-43; same ELISA method as for the biotinylated 15-mers
T12 peptide: MDVFIPKP
As to the kind of experiment: indirect ELISA, 8-mer peptide library. The protocol: as §1, §2

The next test concerns the target T13, TDP-214 peptide (human).
T13 construct: 8-mer of human TDP-43; same ELISA method as for the biotinylated 15-mers
T13 peptide: YGDVMDVF
As to the kind of experiment: indirect ELISA, 8-mer peptide library. The protocol:
as §1, §2

The next test has as its target T14, TDP-222 peptide (human).
T14 construct: 8-mer of human TDP-43; same ELISA method as for the biotinylated 15-mers
T14 peptide: IPKPFRAF
Put plainly: indirect ELISA, 8-mer peptide library. The protocol: as §1, §2

For a further test, the target named is T15, TDP-217 peptide (human).
T15 construct: 8-mer of human TDP-43; same ELISA method as for the biotinylated 15-mers
T15 peptide: VMDVFIPK
As to the kind of experiment: indirect ELISA, 8-mer peptide library. As for the experimental part: as §1, §2

A further test deals with T16, TDP-221 peptide (human).
T16 construct: 8-mer of human TDP-43; same ELISA method as for the biotinylated 15-mers
T16 peptide: FIPKPFRA
As to the kind of experiment: indirect ELISA, 8-mer peptide library. The protocol: as §1, §2

Another test has as its target T17, TDP-213 peptide (human).
T17 construct: 8-mer of human TDP-43; same ELISA method as for the biotinylated 15-mers
T17 peptide: QYGDVMDV
As to the kind of experiment: indirect ELISA, 8-mer peptide library. The protocol:
as §1, §2

The next test has as its target T18, TDP-219 peptide (human).
T18 construct: 8-mer of human TDP-43; same ELISA method as for the biotinylated 15-mers
T18 peptide: DVFIPKPF
Put plainly: indirect ELISA, 8-mer peptide library. The protocol:
as §1, §2

The next test has as its target T19, TDP-212 peptide (human).
T19 construct: 8-mer of human TDP-43; same ELISA method as for the biotinylated 15-mers
T19 peptide: SQYGDVMD
Put plainly: indirect ELISA, 8-mer peptide library. The protocol: as §1, §2

In a further test the target is T20, TDP-224 peptide (human).
T20 construct: 8-mer of human TDP-43; same ELISA method as for the biotinylated 15-mers
T20 peptide: KPFRAFAF
As to the kind of experiment: indirect ELISA, 8-mer peptide library. The protocol:
as §1, §2

In another test the target is T21, TDP-211 peptide (human).
T21 construct: 8-mer of human TDP-43; same ELISA method as for the biotinylated 15-mers
T21 peptide: FSQYGDVM
As to the kind of experiment: indirect ELISA, 8-mer peptide library. The protocol:
as §1, §2

The next test has as its target T22, TDP-210 peptide (human).
T22 construct: 8-mer of human TDP-43; same ELISA method as for the biotinylated 15-mers
T22 peptide: FFSQYGDV
As to the kind of experiment: indirect ELISA, 8-mer peptide library. As for the experimental part:
as §1, §2

Another test deals with T23, TDP-220 peptide (human).
T23 construct: 8-mer of human TDP-43; same ELISA method as for the biotinylated 15-mers
T23 peptide: VFIPKPFR
As to the kind of experiment: indirect ELISA, 8-mer peptide library. The protocol: as §1, §2

The next test addresses T24, TP-28 (also: biotinylated, site not given here).
T24 construct: also called TP-28 peptide
T24 peptide: CGEDLIIKGISVHIS
Put plainly: indirect ELISA, biotinylated 15-mer on streptavidin plate, hybridoma supernatant. As for the experimental part:
as §1

For another test, the target named is T25, TDP-215 peptide (human).
T25 construct: same ELISA method as for the biotinylated 15-mers
T25 peptide: GDVMDVFI
As to the kind of experiment: indirect ELISA, 8-mer peptide library, OD 405 nm. The protocol:
as §1, §2

For test [2], the target named is T26, recombinant human full-length TDP-43 (human, UniProt Q13148 1-414).
T26 construct: Recombinant full-length protein; also called FL TDP-43; recFL TDP-43
T26 sequence (Q13148 whole entry): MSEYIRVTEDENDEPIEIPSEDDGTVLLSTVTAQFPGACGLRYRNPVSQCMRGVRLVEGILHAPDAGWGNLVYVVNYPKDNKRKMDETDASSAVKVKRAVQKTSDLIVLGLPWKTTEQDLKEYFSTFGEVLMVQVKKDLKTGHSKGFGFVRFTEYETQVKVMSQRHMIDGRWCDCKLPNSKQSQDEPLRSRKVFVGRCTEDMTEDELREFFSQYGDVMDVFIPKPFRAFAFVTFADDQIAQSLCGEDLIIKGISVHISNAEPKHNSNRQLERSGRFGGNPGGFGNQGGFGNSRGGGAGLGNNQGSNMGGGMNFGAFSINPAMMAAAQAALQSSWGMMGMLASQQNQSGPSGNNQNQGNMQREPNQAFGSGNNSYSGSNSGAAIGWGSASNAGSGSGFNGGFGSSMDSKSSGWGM
Put plainly: Luminex bead assay, antibody serial dilution, FL TDP-43 beads.

Test [3] deals with T26, recombinant human full-length TDP-43. As to the kind of experiment: SPR avidity (Biacore T200), TDP-43 monomer immobilised, antibody as analyte, 1:1 model. The protocol: Avidity measurements were performed on an SPR instrument (Biacore T200, GE Healthcare Life Sciences) using CM5 Series S sensor chips. Recombinant human FL TDP-43 monomers or aggregated recombinant human FL TDP-43 was immobilized on a CM5 chip using amine coupling, injecting at a flow rate of 5 μl/min for 420 seconds. Conditions were optimized so that less than 200 RU protein was immobilized. Binding of the antibodies and the control antibody (2E2-D3) were obtained by injecting at: 1.37, 4.11, 12.33, 37, 111, and 333 nM in 1×PBS P+ at a flow rate of 50 μl/min for 90 s contact time and 600 s dissociation phase, with three regeneration cycles of the ligand surface by 10 mM Glycine-HCl (pH 1.7). Kinetics were analyzed using a 1:1 fitting model (see FIG. 8).
(SPR reads the build-up and loss of mass on a sensor chip optically.)

Test [4] addresses T3, TDP-3 peptide. As to the kind of experiment: Luminex bead assay, TDP-3 peptide beads (irrelevant target).

Substitutions are numbered along the chain they refer to. Where no end group is shown, it is not given here. Where only a bound is given, the exact number is not on record here.

T10 sequence (P02769 25-607 limits assumed): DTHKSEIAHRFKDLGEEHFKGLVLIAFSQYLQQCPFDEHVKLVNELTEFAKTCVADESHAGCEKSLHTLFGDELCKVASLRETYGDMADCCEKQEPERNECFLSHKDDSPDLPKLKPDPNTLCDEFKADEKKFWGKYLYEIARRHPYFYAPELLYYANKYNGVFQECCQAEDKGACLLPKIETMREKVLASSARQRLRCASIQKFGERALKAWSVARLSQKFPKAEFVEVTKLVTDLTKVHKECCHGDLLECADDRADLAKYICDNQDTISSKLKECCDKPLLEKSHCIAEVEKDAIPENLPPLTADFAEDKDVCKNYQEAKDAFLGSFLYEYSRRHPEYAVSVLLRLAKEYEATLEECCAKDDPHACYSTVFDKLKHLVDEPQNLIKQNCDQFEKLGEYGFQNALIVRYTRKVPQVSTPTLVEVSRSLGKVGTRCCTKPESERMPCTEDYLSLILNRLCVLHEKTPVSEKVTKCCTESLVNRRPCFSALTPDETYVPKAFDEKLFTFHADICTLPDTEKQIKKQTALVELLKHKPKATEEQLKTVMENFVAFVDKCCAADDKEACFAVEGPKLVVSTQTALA

B1: ACI-7062-404D6-Ab2 (antibody, IgG3, V domains shown)
VH: QVTLKESGPGILQPSQTLSLTCSFSGFSLSTYGIGVGWIRQPSGKGLEWLAHIWWNDYKYYNTALKSRLTISKDTSNNRVFLKIASVDTADTATYYCARVYGNLYYFDYWGQGTTLTVSS
VL: DVLMTQTPLSLPVSLGDQASISCRSSQSIVHGSGNTYLEWYLQKPGQSPKLLIYKVSNRFSGVPDRFSGSGSGTDFTLRISRVEAEDLGVYYCFQGSHVPTFGAGTKLELKR
notes: also called 404D6E11; clone 4
With B1, the values for the OD with TP-25 peptide and with TP-24 peptide were 0.9 O.D. (405 nm) and 4 O.D. (405 nm), respectively. For the same molecule, the binding result was “no binding (tested: about 20000 pM)” with TDP-3 peptide [1]; “no binding” in the test with TP-27; “no binding” in the test with TP-30; “no binding” with TP-29; “no binding” with TP-31; “no binding” with TP-26. In the test with BSA, the binding result was “no binding”. Moreover, the EC50 (usually the concentration needed to bring the measured effect to its halfway point) with TDP-1 peptide is below 0.01 nM.

B2: ACI-7062-401A2-Ab2 (antibody, IgG1, V domains shown)
VH: DVQLVESGGGLVQPGGSRRLSCAASGFTFSRFGMHWVRQAPEKGLEWVAYIRSGSDIIYYADSVKGRFTISRDNPENTLFLQMTSLRSEDTAMYYCARSGTTVPFDYWGQGTSLTVSS
VL: DIVMTQSPSSLAMSVGQKVTMSCKSSQSLLNSGDQKNYLAWYQQKPGQSPELLLYFASTRASGVPDRFIGSGSGTDFSLTISSVQAEDLADYFCQQHYSIPLTFGAGTKLELKR
notes: also called 401A2C6; clone 2
For the molecule B2, the results for the OD in the test with TP-25 peptide and with TP-24 peptide were 1 O.D. (405 nm) and 2.5 O.D. (405 nm), respectively. Besides, the binding result with TDP-3 peptide [1] was “no binding (tested: about 20000 pM)”; with TDP-223 peptide it was “no binding”; with TDP-218 peptide it was “no binding”; with TDP-214 peptide it was “no binding”; with TDP-222 peptide it was “no binding”; with TDP-217 peptide, “no binding”. In addition, the binding result with TDP-221 peptide, with TDP-213 peptide, with TDP-219 peptide, in the test with TDP-212 peptide, with TDP-224 peptide and with TDP-211 peptide was “no binding” each time. For the same molecule, the binding result with TDP-210 peptide, in the test with TDP-220 peptide, with TP-27, with TP-28, in the test with TP-30 and with TP-29 was “no binding” in each case. Moreover, the binding result with TP-31 is on record as “no binding”; in the test with TP-26 it was “no binding”; with BSA it was “no binding”; in the test with TDP-215 peptide, “binds”. In addition, the EC50 with TDP-1 peptide was below 0.01 nM.

B3: ACI-7062-415H10-Ab2 (antibody, IgG3, V domains shown)
VH: B2 VH with R19K, R31S, R52S, D56S, I57N, A61T, S63T, E76K, M93I, S113T
VL: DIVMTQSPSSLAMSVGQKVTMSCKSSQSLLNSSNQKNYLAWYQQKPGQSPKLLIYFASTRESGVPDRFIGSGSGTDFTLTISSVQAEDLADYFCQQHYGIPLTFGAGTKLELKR
notes: also called 415H10B7; clone 17
Turning to B3, the OD in the test with TP-25 peptide was 1.2 O.D. (405 nm); in the test with TP-24 peptide, 3.9 O.D. (405 nm). For the same molecule, the 50% effective concentration (EC50) in [2] is 0.16 nM; with TDP-1 peptide, below 0.01 nM. Besides, in test [3], the Kd came out at 1.1 nM. Moreover, the binding result with TDP-3 peptide [4], with TP-27, with TP-28, with TP-30, with TP-29 and with TP-31 was “no binding” in each case. The binding result with TP-26 and with BSA was “no binding” in each case.
